Measured values reported in the supplement of paper PMC10567573.

B1: SPOPL (parent)
chain: AKREETKAMESQRAYRFVQGKDWG

Variants of: B1
Assay: protein stability index of a GFP-peptide fusion (GPS, HEK-293T) (PSI 1-6); higher = more stable
Settings: c terminus: a fixed tail appended
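Also: lentivirally expressed fusions sorted by FACS into six bins by GFP to DsRed ratio, PSI derived from sequencing read proportions per bin multiplied by bin number.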

Variant | protein stability index
AKREETKADESQRAYRFVQGKDWG [M9D] | 3.71
AKREETKAEESQRAYRFVQGKDWG [M9E] | 3.85
AKREETKAFESQRAYRFVQGKDWG [M9F] | 2.79
AKREETKAGESQRAYRFVQGKDWG [M9G] | 3.45
AKREETKAHESQRAYRFVQGKDWG [M9H] | 3.25
AKREETKAIESQRAYRFVQGKDWG [M9I] | 3.55
AKREETKAKESQRAYRFVQGKDWG [M9K] | 3.35
AKREETKALESQRAYRFVQGKDWG [M9L] | 3
AKREETKANESQRAYRFVQGKDWG [M9N] | 3.33
AKREETKAPESQRAYRFVQGKDWG [M9P] | 3.27
AKREETKAQESQRAYRFVQGKDWG [M9Q] | 3.69
AKREETKARESQRAYRFVQGKDWG [M9R] | 3.11
AKREETKASESQRAYRFVQGKDWG [M9S] | 3.87
AKREETKATESQRAYRFVQGKDWG [M9T] | 3.66
AKREETKAVESQRAYRFVQGKDWG [M9V] | 3.43
AKREETKAWESQRAYRFVQGKDWG [M9W] | 2.74
AKREETKAYESQRAYRFVQGKDWG [M9Y] | 2.83
AKREETKAMASQRAYRFVQGKDWG [E10A] | 2.61
AKREETKAMCSQRAYRFVQGKDWG [E10C] | 2.63
AKREETKAMDSQRAYRFVQGKDWG [E10D] | 3.02
AKREETKAMFSQRAYRFVQGKDWG [E10F] | 2.37
AKREETKAMGSQRAYRFVQGKDWG [E10G] | 2.69
AKREETKAMHSQRAYRFVQGKDWG [E10H] | 2.33
AKREETKAMISQRAYRFVQGKDWG [E10I] | 2.15

Variant | protein stability index
AKREETKAMKSQRAYRFVQGKDWG [E10K] | 2.96
AKREETKAMLSQRAYRFVQGKDWG [E10L] | 2.3
AKREETKAMMSQRAYRFVQGKDWG [E10M] | 2.29
AKREETKAMNSQRAYRFVQGKDWG [E10N] | 3.34
AKREETKAMPSQRAYRFVQGKDWG [E10P] | 3.18
AKREETKAMQSQRAYRFVQGKDWG [E10Q] | 2.95
AKREETKAMRSQRAYRFVQGKDWG [E10R] | 2.39
AKREETKAMSSQRAYRFVQGKDWG [E10S] | 3
AKREETKAMTSQRAYRFVQGKDWG [E10T] | 3.06
AKREETKAMVSQRAYRFVQGKDWG [E10V] | 2.75
AKREETKAMWSQRAYRFVQGKDWG [E10W] | 2.4
AKREETKAMYSQRAYRFVQGKDWG [E10Y] | 1.73
AKREETKAMEAQRAYRFVQGKDWG [S11A] | 2.07
AKREETKAMECQRAYRFVQGKDWG [S11C] | 2.23
AKREETKAMEDQRAYRFVQGKDWG [S11D] | 4.06
AKREETKAMEEQRAYRFVQGKDWG [S11E] | 3.77
AKREETKAMEFQRAYRFVQGKDWG [S11F] | 2.14
AKREETKAMEGQRAYRFVQGKDWG [S11G] | 2.54
AKREETKAMEHQRAYRFVQGKDWG [S11H] | 2.83
AKREETKAMEIQRAYRFVQGKDWG [S11I] | 2.44
AKREETKAMEKQRAYRFVQGKDWG [S11K] | 3.15
AKREETKAMELQRAYRFVQGKDWG [S11L] | 2.36
AKREETKAMEMQRAYRFVQGKDWG [S11M] | 2.33
AKREETKAMENQRAYRFVQGKDWG [S11N] | 3.47

Variant | protein stability index
AKREETKAMEPQRAYRFVQGKDWG [S11P] | 2.72
AKREETKAMEQQRAYRFVQGKDWG [S11Q] | 3.58
AKREETKAMERQRAYRFVQGKDWG [S11R] | 2.96
AKREETKAMETQRAYRFVQGKDWG [S11T] | 2.76
AKREETKAMEVQRAYRFVQGKDWG [S11V] | 2.53
AKREETKAMEWQRAYRFVQGKDWG [S11W] | 1.88
AKREETKAMEYQRAYRFVQGKDWG [S11Y] | 2.59
AKREETKAMESARAYRFVQGKDWG [Q12A] | 2.63
AKREETKAMESCRAYRFVQGKDWG [Q12C] | 2.55
AKREETKAMESDRAYRFVQGKDWG [Q12D] | 3.85
AKREETKAMESERAYRFVQGKDWG [Q12E] | 3.65
AKREETKAMESFRAYRFVQGKDWG [Q12F] | 2.13
AKREETKAMESGRAYRFVQGKDWG [Q12G] | 2.76
AKREETKAMESHRAYRFVQGKDWG [Q12H] | 2.48
AKREETKAMESIRAYRFVQGKDWG [Q12I] | 1.99
AKREETKAMESKRAYRFVQGKDWG [Q12K] | 2.94
AKREETKAMESLRAYRFVQGKDWG [Q12L] | 1.82
AKREETKAMESMRAYRFVQGKDWG [Q12M] | 2.39
AKREETKAMESNRAYRFVQGKDWG [Q12N] | 3.35
AKREETKAMESPRAYRFVQGKDWG [Q12P] | 2.97
AKREETKAMESRRAYRFVQGKDWG [Q12R] | 2.61
AKREETKAMESSRAYRFVQGKDWG [Q12S] | 3.4
AKREETKAMESTRAYRFVQGKDWG [Q12T] | 2.78
AKREETKAMESVRAYRFVQGKDWG [Q12V] | 2.06

Variant | protein stability index
AKREETKAMESWRAYRFVQGKDWG [Q12W] | 2.4
AKREETKAMESYRAYRFVQGKDWG [Q12Y] | 2.69
AKREETKAMESQAAYRFVQGKDWG [R13A] | 3.65
AKREETKAMESQCAYRFVQGKDWG [R13C] | 2.72
AKREETKAMESQDAYRFVQGKDWG [R13D] | 4.47
AKREETKAMESQEAYRFVQGKDWG [R13E] | 4.24
AKREETKAMESQFAYRFVQGKDWG [R13F] | 2.8
AKREETKAMESQGAYRFVQGKDWG [R13G] | 3.61
AKREETKAMESQHAYRFVQGKDWG [R13H] | 3.62
AKREETKAMESQIAYRFVQGKDWG [R13I] | 3.11
AKREETKAMESQKAYRFVQGKDWG [R13K] | 3.67
AKREETKAMESQLAYRFVQGKDWG [R13L] | 2.36
AKREETKAMESQMAYRFVQGKDWG [R13M] | 2.54
AKREETKAMESQNAYRFVQGKDWG [R13N] | 3.92
AKREETKAMESQPAYRFVQGKDWG [R13P] | 2.61
AKREETKAMESQQAYRFVQGKDWG [R13Q] | 3.67
AKREETKAMESQSAYRFVQGKDWG [R13S] | 3.38
AKREETKAMESQTAYRFVQGKDWG [R13T] | 3.42
AKREETKAMESQVAYRFVQGKDWG [R13V] | 2.28
AKREETKAMESQWAYRFVQGKDWG [R13W] | 2.26
AKREETKAMESQYAYRFVQGKDWG [R13Y] | 3.32
AKREETKAMESQRCYRFVQGKDWG [A14C] | 2.82
